Measurements published in US20030158102A1 (MAYO FOUNDATION FOR MEDICAL EDUCATION AND RESEARCH, published 2003).
Residue numbers refer to the chain shown, from its start.

T1: B7-H2Ig fusion protein (extracellular domain of human B7-H2 linked to an Ig portion); which one not said for … (human, UniProt O75144 19-256)
T1 sequence (looked up): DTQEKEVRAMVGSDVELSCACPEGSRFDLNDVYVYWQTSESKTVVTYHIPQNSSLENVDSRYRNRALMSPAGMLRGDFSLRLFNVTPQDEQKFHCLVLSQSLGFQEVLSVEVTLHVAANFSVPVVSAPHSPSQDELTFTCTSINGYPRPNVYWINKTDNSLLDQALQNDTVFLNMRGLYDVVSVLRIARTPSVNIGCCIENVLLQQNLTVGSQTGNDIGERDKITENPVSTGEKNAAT

T2: human B7-H2 expressed on transfected CHO cells (human, UniProt O75144 19-302)
T2 construct: whole, on cells; also called B7-H2+ CHO cells
T2 sequence (looked up): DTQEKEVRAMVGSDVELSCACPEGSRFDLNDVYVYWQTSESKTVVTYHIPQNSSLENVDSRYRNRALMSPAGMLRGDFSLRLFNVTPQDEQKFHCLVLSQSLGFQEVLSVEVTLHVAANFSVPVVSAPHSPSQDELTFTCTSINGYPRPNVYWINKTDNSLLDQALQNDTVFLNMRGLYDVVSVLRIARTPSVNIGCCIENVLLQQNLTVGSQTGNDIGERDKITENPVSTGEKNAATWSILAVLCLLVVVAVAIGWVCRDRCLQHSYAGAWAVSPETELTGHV

T3: B7-H2mIg (extracellular domain of human B7-H2 linked to mouse IgG2a) (human; mouse, UniProt O75144 19-256)
T3 construct: extracellular domain; also called B7-H2Ig (mouse Ig); B7-H2Ig; not shown: mouse IgG2a
T3 sequence (looked up): T1 sequence (looked up)

B1: ICOSIg mutant Ser76Glu (Fc fusion)
chain: EINGSANYEMFIFHNGGVQILCKYPDIVQQFKMQLLKGGQILCDLTKTKGSGNTVEIKSLKFCHSQLSNNSVSFFLYNLDHSHANYYFCNLSIFDPPPFKVTLTGGYLHIYESQLCCQLK
notes: Built on ICOSIg cDNA; also called Ser76Glu mutant; Ser76Glu protein; not shown: CH2-CH3 portion of human IgG1
B2: ICOSIg mutant Asp115Ser (Fc fusion)
chain: B1 chain with E56S, D95S
notes: Built on ICOSIg cDNA; not shown: CH2-CH3 portion of human IgG1
B3: ICOSIg mutant Phe51Ser (Fc fusion)
chain: B1 chain with F31S, E56S
notes: as for B2
B4: ICOSIg mutant Phe119Ser (Fc fusion)
chain: B1 chain with E56S, F99S
notes: as for B2
B5: ICOSIg mutant Lys67Ser (Fc fusion)
chain: B1 chain with K47S, E56S
notes: as for B2
B6: ICOSIg mutant Phe114Ser (Fc fusion)
chain: B1 chain with E56S, F94S
notes: as for B2
B7: ICOSIg mutant Pro117Ser (Fc fusion)
chain: B1 chain with E56S, P97S
notes: Built on ICOSIg cDNA; also called Pro117Ser mutant; not shown: CH2-CH3 portion of human IgG1
B8: ICOSIg homologue replacement mutant RP64-78 (Fc fusion)
chain: EINGSANYEMFIFHNGGVQILCKYPDIVQQFKMQLLKGGQILCVVYGNYSQQLQVYSKSLKFCHSQLSNNSVSFFLYNLDHSHANYYFCNLSIFDPPPFKVTLTGGYLHIYESQLCCQLK
notes: not shown: CH2-CH3 portion of human IgG1
B9: wild-type ICOSIg (extracellular domain of human ICOS fused to the CH2-CH3 portion of human IgG1) (Fc fusion)
chain: B1 chain with E56S
notes: Made in COS cells; used as concentrated supernatant or purified; also called human ICOSIg; not shown: CH2-CH3 portion of human IgG1
B10: ICOSIg mutant Gln50Ser (Fc fusion)
chain: B1 chain with Q30S, E56S
notes: as for B2
B11: ICOSIg homologue replacement mutant RP49-52 (Fc fusion)
chain: B1 chain with Q29R, Q30E, K32R, E56S
notes: as for B8
B12: ICOSIg mutant Lys52Ser (Fc fusion)
chain: B1 chain with K32S, E56S
notes: as for B2
B13: ICOSIg mutant Asp64Ser (Fc fusion)
chain: B1 chain with D44S, E56S
notes: as for B2
B14: ICOSIg mutant Lys69Ser (Fc fusion)
chain: B1 chain with K49S, E56S
notes: as for B2
B15: ICOSIg mutant Gln49Ser (Fc fusion)
chain: B1 chain with Q29S, E56S
notes: as for B2

target: T1, B7-H2Ig fusion protein (extracellular …); assay: cell-based or functional assay

T cell proliferation ([3H]-thymidine) costimulated by immobilized B7-H2Ig with anti-CD3 mAb	Binder
~10 fold (against wild-type ICOSIg)	B1

target: T2, human B7-H2 expressed on transfected …; assay: FACS on B7-H2+ CHO cells

binding result	Binder
no binding	B2
no binding	B3
no binding	B4
no binding	B5
no binding	B6
no binding	B7

target: T2, human B7-H2 expressed on transfected …; assay: FACS on CHO cells transfected to express B7-H2
Protocol: Flow cytometry: B7-H2⁺ CHO cells (1×10⁵ cells per sample) were incubated on ice for 45 minutes, in a 1:1 mixture of fluorescence activated cell sorter (FACS) buffer (3% FBS and 0.02% NaN₃ in PBS):COS cell culture media containing ICOSIg fusion proteins. The B7-H2Ig fusion protein was used as a negative control. The cells were washed and further incubated with fluorescein isothiocyanate (FITC)-conjugated goat anti-human IgG (BioSource, Camarillo, Calif.) on ice for 30 minutes. Fluorescence was analyzed on a FACScaliber flow cytometer (Becton Dickinson, Mountain View, Calif.) with Cell Quest software (Becton Dickinson).
Mutagenesis analysis of the interaction between ICOS and B7-H2: The conserved regions within ICOS were subjected to mutagenesis in order to analyze their importance for binding to B7-H2. […] These constructs were expressed as ICOSIg hybrid proteins in COS cells, and the concentrations of the mutant proteins in serum-free culture media was determined by sandwich ELISA using anti-human Ig mAbs (BD Pharmingen). […] The ability of each ICOSIg mutant to bind to B7-H2 was determined by sandwich ELISA using B7-H2Ig (mouse Ig) and anti-human Ig mAb (FIG. 3A), and also by FACS analysis of ICOSIg binding to CHO cells that were transfected to express B7-H2. […]

binding result	Binder
no binding	B8

target: T3, B7-H2mIg (extracellular domain of human …); assay: capture ELISA, B7-H2mIg coated, anti-human IgG-HRP detection
Protocol: The ability of ICOSIg mutants to bind B7-H2 was measured using capture ELISA. Recombinant B7-H2mIg fusion proteins were coated on microtiter plates at 5 μg/ml and incubated overnight at 4° C. As described above, wells were blocked and then washed with PBS-Tween, and COS cell culture media was added and incubated for 2 hours at room temperature. HRP-conjugated goat anti-human IgG was added after washing, followed by TMB substrate and H₂SO₄, and absorbance was measured at 405 nm.
^a The regions, nucleotides, or amino acids in front of the slash were replaced with the corresponding regions, nucleotides, or amino acids after the slash. ^b Nucleotides are numbered from the A of the initiation codon. ^c Amino acids are numbered from the initiation methionine. ^d Specific binding activities were determined for each of the indicated fusion proteins. The concentration of a fusion protein required to give an arbitrary A405, which is the same as that of wild type ICOSIg, was determined from the linear region of binding curves and expressed as a percentage of specific binding activity of ICOSIg. Values represent the average of three determinations from each binding curve. The results are representative of three experiments.

B7-H2 Binding (specific binding activity as percentage of ICOSIg)	Binder
< 0.1 % of wild type ICOSIg	B8
100 % of wild type ICOSIg	B9
6 % of wild type ICOSIg	B10
< 0.1 % of wild type ICOSIg	B2
< 0.1 % of wild type ICOSIg	B3
9 % of wild type ICOSIg	B11
< 0.1 % of wild type ICOSIg	B4
200 % of wild type ICOSIg	B12
300 % of wild type ICOSIg	B1
6 % of wild type ICOSIg	B13
3 % of wild type ICOSIg	B14
< 0.1 % of wild type ICOSIg	B5
33 % of wild type ICOSIg	B15
< 0.1 % of wild type ICOSIg	B6
< 0.1 % of wild type ICOSIg	B7
